{"source": "the DeepSol protein solubility set"}
{"test": "soluble on expression in E. coli; label from the status in PepcDB or PDB records"}
{"sequence": "MPLSPTSVPLTVKEFEKALCGICGGCSSACGYIAYLKQDELVDLYGHPHDPNGIGSFCTKGITYIQEIPKNPLRITKPLLREGNNFREVEFQETKKLIKENLKGKVAFFLDRFAGIEEYLIARSLTEEVFSDSLYLPFKQTSVRAQDWVDKKALFIFEAEPTFSEVMLTRWIVDAFEKDAYIFTAGSRYTTVFQKSKEKVLTTPEKTTEILQALSEGRFEGKAQKFLEFFGKESVVIVGDTLLRSPFRGKVLKTLKEISEKYGADYSIVGNITPFPVKSLKEFLERLGEFDTLVLFGNPFIYLSDEQIQKLKDKFVINFAYFPTITANHSTLIIPRTTFAEREFIVKGFGFLAHSPQVLNAPFPQPYEYFESSFDVEDFLKECGVKLEELKEKEGGVDISMKDITEVDINEEDRSESGELWFICDNTLAEELGHWNPWTHALEREQFAYVNQKTKERLNIGNLIEINGVKLKVKVNNNLADNVVFVPNSFEEFQPFDPGIRVGRLMKKPFFKLEVLNLNV", "soluble on expression in E. coli": "not soluble"}
{"sequence": "GSMAISDPPNSSSVPLEGNGTILVKGNVTIIVEGNADITVKGDATTLVEGNQTNTVNGNLSWKVAGTVDWDVGGDWTEKMASMSSISSGQYTIDGSRIDIGSVEGYIPEAPRDGQAYVRKDGEWVFLSTFLVEHHHHHH", "soluble on expression in E. coli": "soluble"}
{"sequence": "MSLENIIARRYAKAIASRADINDFYQNLCILNSAFVLPKFKNIIESNEIKKERKMEFLDSFFDIKNSSFQNFLRLLIENSRLECIPQIVKELERQKAFKENIFVGIVYSKEKLSQENLKDLEVKLNKKFDANIKLNNKISQDDSVKIELEELGYELSFSMKALQNKLNEYILKIEGHHHHHH", "soluble on expression in E. coli": "not soluble"}
{"sequence": "MGSDKIHHHHHHMNICDLAPAYIRAISPYQPGKPISELAREMGMDEQSIIKLASNENPLGTSPMALNAMSKALDEVSLYPDGSGFELKAALSERYGVTSDQIVLGNGSNDVLELAARVFLKPGASTVYSQHAFAVYPLVTKAVGGIGISVPARNYGHDLDAMLDAVAPETRVVFIANPNNPTGTLLPADDVLRFLERVSPDVLVVLDEAYNEYLPPALKGDSIAWLKQFPNLLITRTFSKAYGMAGVRVGFGLGHPDVAGLMNRVRQPFNVNNIGLAGAVAALQDEEFVKRSYALNQAGMLQIVTGLRQMGIEYIPSYGNFLSFRVPGNVKAINESLLKQGVIVRPISIYEMPEHLRVTVGLESENEKFLKSLAIALETTEGAAADTIPEMAVSFPKVASGGTA", "soluble on expression in E. coli": "not soluble"}
{"sequence": "MGSDKIHHHHHHAELPLEEGVSVRFEIKRDGVMSRAPGDAALSVNRILILPFRKTDEASSNDAANFVPEYSAARQLDVNSFPAVVTMLTLSAASTYQLLVIGYNRSDYDFASGGGATKRFNIGSTGNPATLANLYLQPVNPTVVPEFFSCFGNGYRGTTLVGPIFKPSQINYVTGTLKRLVSGFTLEVTNVPAYVNSMTLIAEQLVTATRATDGTALTWQTAGDGGTKTLATQAPVSGKVSFNQFLLAIPDSRKTLFYLDVSYGIFTERYTVKLPDTPGVVSGNRIIFTPNHWVKVTGSYANINIGFTLAGNINLDDNAWDGLQ", "soluble on expression in E. coli": "not soluble"}
{"sequence": "MKSTDNSKPVPFFRGKLKFFQPKEHKISVDLVLFLSKIKPPKRNYRIIDLGAGFGFLSITLAKKYGVKVVAFEYDERMVKLLRKNVKLNGVEHLVEVVEGDIKEIEKHLSRGSFNLVVSNPPFYPINYSPNPEPYHFEVYATLKDFVRASSYLLKDGGELYLLSPCFRLYELTEYLSNFNLPLRKLSLIYPTPLKRARLAITVSVKNVKGQLECDKPLIINKENGEYTEEVKQLLENFL", "soluble on expression in E. coli": "soluble"}
{"sequence": "INYKQLQLQERTNIRKCQELLEQLNGKINLTYRADFKIPMEMTEKMQKSYTAFAIQEMLQNVFLVFRNNFSSTGWNETIVVRLLDELHQQTVFLKTVLEEKQEERLTWEMSSTALHLKSYYWRVQRYLKLMKYNSYAWMVVRAEIFRNFLIIRRLTRNFQN", "soluble on expression in E. coli": "soluble"}
{"sequence": "MELDVKFEEKDLQHIRQVFSRLRGLGKSDGLTRKMASVLQEDAEDAFAMERTPDGVKWRDLSPKYKKQRYNKGYTGNILQRHGDLAGSLNIAYGDNFAAVGVAEHYGEYHQLGTKKMSARPFLGISEDGVEEIKEILNNAIRRALRD", "soluble on expression in E. coli": "not soluble"}
{"sequence": "SLMDVKCETPNCPFFMSVNTQPLCHECSERRQKNQN", "soluble on expression in E. coli": "soluble"}
{"sequence": "FFTPPHIVQLCVRLVDDFADGMTFHDPTVGSGGMLTEAAKYYREAQGGDPSKLTFTGQEINPDIAAIARMNLSLHTLNGEIERGDSLASPGFTDGDDLERFDRVLANFPFSADWAKDDLQDDQYGRFDWHTKLPRADRGDYAFIMHIAEQLKEPDCGDESGGKAAIVIPHGVLFRKHEQRYRQPMLENDLVEAIVGLPENLFQNNSIPSAILVLNTDKPADREGEVQFIHAADEAFYEELSNQNELTDDGLDHIVENFDDWTTE", "soluble on expression in E. coli": "not soluble"}
{"sequence": "GPGSMACLSRIDANLLQYYEKPEPNNTVDLYVSNNSNNNGLKEGDKSISTPVPQPYGSEYSNCLLLSNSEYICYHFSSRSTLLTFYPLSDAYHGKTINIHLPNASMNQRYTLTIQEVEQQLLVNVILKDGSFLTLQLPLSFLFSSANTLNGEWFHLQNPYDFTVRVPHFLFYVSPQFSVVFLEDGGLLGLKKVDGVHYEPLLFNDNSYLKSLTRFFSRSSKSDYDSVISCKLFHERYLIVLTQNCHLKIWDLTSFTLIQDYDMVSQSDSDPSHFRKVEAVGEYLSLYNNTLVTLLPLENGLFQMGTLLVDSSGILTYTFQNNIPTNLSASAIWSIVDLVLTRPLELNVEASYLNLIVLWKSGTASKLQILNVNDESFKNYEWIESVNKSLVDLQSEHDLDIVTKTGDVERGFCNLKSRYGTQIFERAQQILSENKIIMAHNEDEEYLANLETILRDVKTAFNEASSITLYGDEIILVNCFQPYNHSLYKLNTTVENWFYNMHSETDGSELFKYLRTLNGFASTLSNDVLRSISKKFLDIITGELPDSMTTVEKFTDIFKNCLENQFEITNLKILFDELNSFDIPVVLNDLINNQMKPGIFWKKDFISAIKFDGFTSIISLESLHQLLSIHYRITLQVLLTFVLFDLDTEIFGQHISTLLDLHYKQFLLLNLYRQDKCLLAEVLLKDSSEFSFGVKFFNYGQLIAYIDSLNSNVYNASITENSFFMTFFRSYIIENTSHKNIRFFLENVECPFYLRHNEVQE", "soluble on expression in E. coli": "soluble"}
{"sequence": "MNQQKSLTLIVALTTSYGIGRSNSLPWKLKKEISYFKRVTSFVPTFDSFESMNVVLMGRKTWESIPLQFRPLKGRINVVITRNESLDLGNGIHSAKSLDHALELLYRTYGSESSVQINRIFVIGGAQLYKAAMDHPKLDRIMATIIYKDIHCDVFFPLKFRDKEWSSVWKKEKHSDLESWVGTKVPHGKINEDGFDYEFEMWTRDL", "soluble on expression in E. coli": "soluble"}
{"sequence": "MVALRGKDATSFLARPDPGRPIVLLYGPDAGLVRERADALIAASLDDPKDPFALVRLDGDELSAEPSRLVDEALAIPMFGGRRAIRVRAGSRSFVAGVEALIASPPRECRIVIEAGDIKPDNALRKACEKAATGAVAIGCYPDAEADIARLIDDELRGSNLQIAKDARAVLTTLLGGDRQASRNELRKLALYAHGKGEVTLDDVITCVSDASDLKLDAIVDAAFSGKPVVVETEFAKAMVAGTYPGQIILAAQRHAAFLHKTSLVVEGGTPAAVVLDSGFPRLHFSRKAAAETALRNLSTTRLAQIIEQLASAALETRRQATLGAAIAQRTLLSIAVSARRRSLEHHHHHH", "soluble on expression in E. coli": "soluble"}
{"sequence": "DVQINIRNNVYIPPCTINNGQNIVVDFGNINPEHVDNSRGEVTKTISISCPYKSGSLWIKVTGNTMGGGQNNVLATNITHFGIALYQGKGMSTPLTLGNGSGNGYRVTAGLDTARSTFTFTSVPFRNGSGILNGGDFRTTASMSMIYN", "soluble on expression in E. coli": "soluble"}
{"sequence": "MTADSCNPCLTLENTIDVQEVPMTKSVVLADPRGFCAGVDRAILTVQTILKAAEASGKRTREDGLPPVYVRRQIVHNKHVVEDLAGQGAVFVQELAEIPDAAAQAGIPVVFSAHGVSPVVKAEAERRGMHVVDATCPLVGKVHREVLRFVREGYEIVYIGHKGHDEAVGVVGESPEHVHLIEHESDVDSLDFAPDTKLVLLSQTTLSVDETADTIAALKAKFPWIQEPPSSDICYATSNRQAAVKLVAQQSDCVVIVGSANSSNSVRLMEVAQEGLGERGKAYRVDDASELDPAWFEGLESVGISSGASVPDELVSGVIDALQNLGFTGMKSVETIKENMHFVLPAELRRKKLEHHHHHH", "soluble on expression in E. coli": "soluble"}
{"sequence": "MESKNKNGDYVIPDSVKNYDGEPLYILVSLWCKLQEKWISRNDIAEAFGINLRRASFIITYISRRKEKISFRVRYVSYGNLHYKRLEIFIYDVNLEAVPIESPGTTGPKRKTYRVGNGIVGQSNIWNEMIMRRKKES", "soluble on expression in E. coli": "not soluble"}
{"sequence": "MGSDKIHHHHHHMAYRDQSLGELAIAIPRATKLFRELNLDFCCGGKQTLSRAAGKKDLNIDELEAQLEKLAAQPSDARDWREAPLADIIAYIIPRFHDRHREQLPELILMAKKVERVHHDKADCPHGLANQLTAIYNELSQHMMKEERILFPMIGQGMGANAAAPISVMEHEHDDAGRDVEVVKELTNGVVPPEGACNTWRALYSGINEFITDLMEHIHLENNLLFPRALRGE", "soluble on expression in E. coli": "not soluble"}
{"sequence": "MKETVTMLNQQYVVPEGLQPYQGVTANSPWLASETEKRRRKICDSLEEAIRRSGLKNGMTISFHHAFRGGDKVVNMVMAKLAEMGFRDLTLASSSLIDAHWPLIEHIKNGVVRQIYTSGLRGKLGEEISAGLMENPVQIHSHGGRVKLIQSGELNIDVAFLGVPCCDEFGNANGFSGKSRCGSLGYAQVDAQYAKCVVLLTEEWVEFPNYPASIAQDQVDLIVQVDEVGDPEKITAGAIRLSSNPRELLIARQAANVIEHSGYFCDGFSLQTGTGGASLAVTRFLEDKMRRHNITASFGLGGITGTMVDLHEKGLIKALLDTQSFDGDAARSLAQNPHHIEISTNQYANPASKGAACERLNVVMLSALEIDVNFNVNVMTGSNGVLRGASGGHSDTAAGADLTIITAPLVRGRIPCVVEKVLTTVTPGASVDVLVTDHGIAVNPARQDLLDNLRAAGVALMTIEQLQQRAEQLTGKPQPIEFTDRVVAVVRYRDGSVIDVIRQVKG", "soluble on expression in E. coli": "soluble"}
{"sequence": "MASATARGLRKRLTPQEARLWAGLRELKLRGYHFRRRAPIGCYVVDFVCLSAKLVIDADGEQQAMPAHFAADRQRGVVLRRQGFRVLHFWNSDIDRYFEGVMQTVLDALPPPSVRPNVSRTGHSIHEGAGESG", "soluble on expression in E. coli": "soluble"}
{"sequence": "KISKISTGIPRVDELLYGGFDGRDNIVVSGNNFSQKRSFIYNFIKSSANSGMKVIIINVDGSSESLLADLARRGTDLENIILLDGFSKNFQEKVPPNAEVIDDPSNVSSVLKQYMLRAQKEKDFIFVFLSATPYLMDFNDQNRKFFVQLVHWNRKNSLLSTYVLDDFVGQTTAEWFAYMMDFSLYFKNDGDYDYMRVLSLKPVRTKDW", "soluble on expression in E. coli": "soluble"}
{"sequence": "MGSDKIHHHHHHMSAVTESVLESIISPVTMSEFLEEYWPVKPLVARGEVERFTSIPGFEKVRTLENVLAIYNNPVMVVGDAVIEESEGITDRFLVSPAEALEWYEKGAALEFDFTDLFIPQVRRWIEKLKAELRLPAGTSSKAIVYAAKNGGGFKAHFDAYTNLIFQIQGEKTWKLAKNENVSNPMQHYDLSEAPYYPDDLQSYWKGDPPKEDLPDAEIVNLTPGTMLYLPRGLWHSTKSDQATLALNITFGQPAWLDLMLAALRKKLISDNRFRELAVNHQSLHESSKSELNGYLESLIQTLSENAETLTPEQIFQSQDSDFDPYQSTQLVFRQLLTSYKF", "soluble on expression in E. coli": "soluble"}
